Measurements reported in patent US20140314711A1.

T1: human IL-22 receptor complex IL22R1 and IL10R2 (human) (UniProt Q8N6P7)
T1 sequence (looked up) 1: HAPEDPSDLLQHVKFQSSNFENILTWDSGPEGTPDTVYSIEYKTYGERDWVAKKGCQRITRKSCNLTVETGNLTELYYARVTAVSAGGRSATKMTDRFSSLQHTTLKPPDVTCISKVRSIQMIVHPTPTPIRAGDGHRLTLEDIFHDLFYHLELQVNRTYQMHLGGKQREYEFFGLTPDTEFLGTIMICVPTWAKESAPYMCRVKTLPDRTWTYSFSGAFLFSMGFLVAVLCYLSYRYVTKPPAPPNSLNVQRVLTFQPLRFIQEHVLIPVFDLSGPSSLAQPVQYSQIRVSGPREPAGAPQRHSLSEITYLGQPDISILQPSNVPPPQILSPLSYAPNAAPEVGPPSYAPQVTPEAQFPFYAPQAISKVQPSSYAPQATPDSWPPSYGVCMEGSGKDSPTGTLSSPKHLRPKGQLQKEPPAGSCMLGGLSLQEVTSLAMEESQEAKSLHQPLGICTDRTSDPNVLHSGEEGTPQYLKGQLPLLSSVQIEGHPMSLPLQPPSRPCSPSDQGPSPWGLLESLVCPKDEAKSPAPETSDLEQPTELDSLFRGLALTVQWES
T1 sequence (looked up) 2: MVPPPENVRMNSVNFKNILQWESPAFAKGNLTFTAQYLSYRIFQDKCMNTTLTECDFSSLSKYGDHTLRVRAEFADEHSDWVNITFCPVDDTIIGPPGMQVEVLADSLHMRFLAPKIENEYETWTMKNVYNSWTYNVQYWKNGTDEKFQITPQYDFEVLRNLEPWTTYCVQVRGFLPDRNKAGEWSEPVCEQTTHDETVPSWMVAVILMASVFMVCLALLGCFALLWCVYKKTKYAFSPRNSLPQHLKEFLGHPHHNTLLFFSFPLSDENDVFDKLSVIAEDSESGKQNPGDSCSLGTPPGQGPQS


Target: T1, human IL-22 receptor complex IL22R1 and IL10R2 (human)
Test: cell-based or functional assay

Binder	EC50 (STAT3 luciferase reporter assay)
IL-22 Fc construct 12 (huIgG1, linker …) (Fc fusion, not shown: a dimerising Fc or GST) APISSHCRLDKSNFQQPYITNRTFMLAKEASLADNNTDVRLIGEKLFHGVSMSERCYLMKQVLNFTLEEVLFPQSDRFQPYMQEVVPFLARLSNRLSTCHIEGDDLHIQRNVQKLKDTVKKLGESGEIKAIGELDLLFMSLRNACIDKKVEPKSSDKTHTCPPCP	25 pM
IL-22 Fc construct 13 (huIgG1, linker …) (Fc fusion, not shown: a dimerising Fc or GST) APISSHCRLDKSNFQQPYITNRTFMLAKEASLADNNTDVRLIGEKLFHGVSMSERCYLMKQVLNFTLEEVLFPQSDRFQPYMQEVVPFLARLSNRLSTCHIEGDDLHIQRNVQKLKDTVKKLGESGEIKAIGELDLLFMSLRNACIKVDKKVEPKSSDKTHTCPPCP	25 pM
IL-22 Fc construct 18 (huIgG1, linker …, N297G) (Fc fusion, not shown: a dimerising Fc or GST) APISSHCRLDKSNFQQPYITNRTFMLAKEASLADNNTDVRLIGEKLFHGVSMSERCYLMKQVLNFTLEEVLFPQSDRFQPYMQEVVPFLARLSNRLSTCHIEGDDLHIQRNVQKLKDTVKKLGESGEIKAIGELDLLFMSLRNACIKKVEPKSSDKTHTCPPCP	20 pM
IL-22 Fc construct 24 (huIgG1, linker …, produced in E. coli) (Fc fusion, not shown: a dimerising Fc or GST) APISSHCRLDKSNFQQPYITNRTFMLAKEASLADNNTDVRLIGEKLFHGVSMSERCYLMKQVLNFTLEEVLFPQSDRFQPYMQEVVPFLARLSNRLSTCHIEGDDLHIQRNVQKLKDTVKKLGESGEIKAIGELDLLFMSLRNACIEPKSSDKTHTCPPCP	16 pM
